B1: hTERT peptide p444 (…, residues 444-452) (peptide)
peptide: DPRRLVQLL
B2: hTERT peptide p277 (…, residues 277-285) (peptide)
peptide: RPAEEATSL

Columns and labels:
[1] = target: T1, HLA-B*0702 molecule on HLA-B*0702 transfected TAP deficient T2 cells (T2-B7) (human); assay: MHC stabilization assay on T2-B7 cells, ME-1 staining; ratio of concentration inducing 20% of HLA-B*0702 expression against reference peptide CMV265-274; details: remark: other sources report otherwise
[2] = target: T1, HLA-B*0702 molecule on HLA-B*0702 …; assay: MHC stabilization assay on T2-B7 cells, flow cytometry with ME.1; ratio of concentration giving 20% of maximal binding against reference peptide R10TV; details: remark: other sources report otherwise

Binder	RA (relative affinity) [1]	relative avidity [2]
B1	> 10	–
B2	–	4.7
